Reference: publication PMC1635724

Target: 6His-PfJ (4.1R binding region of Plasmodium falciparum erythrocyte binding antigen-181, aa 945-1097) (P. falciparum) (UniProt Q8I2B4)
Assay: pull-down; ~700 ng 6His-PfJ coupled to His-Select magnetic beads, GST-4.1R domain (150 ng to 2 μg; heat denatured protein as control) added for 1 hr at room temperature, rinsed with TBS, eluted with 1% SDS, SDS-PAGE with scanning densitometry; Kd a rough estimate from linear transformations of three curves

Substance: GST-10 kDa domain of human erythrocyte protein 4.1 (4.1R) (domain or fragment)
- Kd: 745 nM
